Measurements from article PMC11617674, “The activity of the ribonucleotide monophosphatase UmpH is controlled by interaction with the GlnK signaling protein in Escherichia coli” (The Journal of Biological Chemistry, 2024).

Target: T1, UmpH (ribonucleotide monophosphatase), untagged recombinant (E. coli, UniProt P0AF24 1-250)
T1 construct: UmpH (NagD), ribonucleotide monophosphatase of E. coli; also called NagD; untagged UmpH; source: E. coli BL21 (λDE3), pET29a, purified (ammonium sulfate, gel filtration)
T1 sequence (looked up): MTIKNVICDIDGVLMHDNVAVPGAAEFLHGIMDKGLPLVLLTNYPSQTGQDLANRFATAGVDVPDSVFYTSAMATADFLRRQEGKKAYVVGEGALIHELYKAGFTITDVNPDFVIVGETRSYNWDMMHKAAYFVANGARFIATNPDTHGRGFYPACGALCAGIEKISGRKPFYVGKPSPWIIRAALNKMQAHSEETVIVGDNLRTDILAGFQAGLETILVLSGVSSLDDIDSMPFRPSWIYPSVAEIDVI
Experiment: pull-down; His-PII on Ni2+ magnetic beads, untagged UmpH; 50 mM Tris-HCl pH 8.0, 0.1 M NaCl, 5 mM MgCl2, 10% glycerol, 20 mM imidazole; room temperature; without nucleotides or with ATP or ADP (effectors as indicated); SDS-PAGE, Coomassie
Details: both partners purified

B1: His-GlnB from Azospirillum brasilense (natural protein, UniProt P21193 1-112, looked up)
chain: MKKIEAIIKPFKLDEVKEALHEVGIKGITVTEAKGFGRQKGHTELYRGAEYVVDFLPKVKIEVVMEDSLVERAIEAIQQAAHTGRIGDGKIFVTPVEEVVRIRTGEKGGDAI
notes: GlnB, PII protein of Azospirillum brasilense; also called GlnBAb; His-AbPII; not shown: His tag, N-terminal, kept
- binding result: binds
